The target in data set [1] is T1, VEGF-A165 (human, UniProt P15692-4 27-191). As to the kind of experiment: MST; TBSET: 10 mM Tris, 100 mM NaCl, 50 mM KCl, 0.05 mM EDTA, 0.05% Tween 20, pH 7; MST with 25 nM aptamer, 20 min at 20 C, read at room temperature; microarray in TBSETB (TBSET + 1% BSA), 1 h for the co-incubation. Particulars: protein: recombinant, chain copies: 2.
For data set [2], the target named is T1, VEGF-A165. As to the kind of experiment: MST; no binding curve over 5 fluorescence units; TBSET: 10 mM Tris, 100 mM NaCl, 50 mM KCl, 0.05 mM EDTA, 0.05% Tween 20, pH 7; MST with 25 nM aptamer, 20 min at 20 C, read at room temperature; microarray in TBSETB (TBSET + 1% BSA), 1 h for the co-incubation. The following applies: protein: recombinant; chain copies: 2; label: 3' FITC.

For data set [3], the target named is T2, alpha-chymotrypsin (UniProt P00766;P00766;P00766 1-13;16-146;149-245). As to the kind of experiment: capillary-scan TID (competition); up to 7.5 uM; complement did not dissociate; TBSET: 10 mM Tris, 100 mM NaCl, 50 mM KCl, 0.05 mM EDTA, 0.05% Tween 20, pH 7; MST with 25 nM aptamer, 20 min at 20 C, read at room temperature; microarray in T.
Data set [4] deals with T2, alpha-chymotrypsin. The data set is described as follows: microarray TID (competition); 1 uM protein, 1000 pM cV7t1-Cy5: no decrease; TBSET: 10 mM Tris, 100 mM NaCl, 50 mM KCl, 0.05 mM EDTA, 0.05% Tween 20, pH 7; MST with 25 nM aptamer, 20 min at 20 C, read at room temperature; microarray in T.

T1 sequence (P15692 other isoform, or with tags, fused parts or gaps): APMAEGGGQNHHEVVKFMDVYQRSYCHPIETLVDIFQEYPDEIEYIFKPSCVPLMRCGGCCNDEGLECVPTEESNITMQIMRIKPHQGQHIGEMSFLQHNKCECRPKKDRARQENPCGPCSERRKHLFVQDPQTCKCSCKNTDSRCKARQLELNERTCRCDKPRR

B1: Del5-1-Cy5 (ssDNA)
DNA: ATACCAGTCTATTCAATTGGGCCCGTCCGTATGGTGGGTGTGCTGGCCAG
One may read the Kd as a measure of binding affinity in units of concentration. For B1, the dissociation constant Kd with VEGF-A165 [1] (label: 3' Cy5) was 47 ± 18 nM.

B2: Syl3C-FITC (ssDNA)
DNA: CACTACAGAGGTTGCGTCTGTCCCACGTTGTCATGGGGGGTTGGCCTG
On to B2, for which, in the data set with VEGF-A165 [2], the binding result was “no binding”.

B3: V7t1-Cy5 (structured_DNA)
DNA: TGTGGGGGTGGACGGGCCGGGTAGATAGTATGTGCAATC
For B3, the Kd with VEGF-A165 [1] (label: 3' Cy5, G-quadruplex with three G-quartets) amounted to 201 ± 28 nM.

B4: V7t1-FITC/cV7t1-Dabcyl (mixed)
DNA 1: TGTGGGGGTGGACGGGCCGGGTAGATAGTATGTGCATTC
DNA 2: CCGTCCACCCCC
modifications: 3' Dabcyl quencher on strand 2
With B4, the binding result in the data set with alpha-chymotrypsin [3] is reported as “no binding”.

B5: V7t1-NH2/cV7t1-Cy5 (mixed)
DNA 1: TGTGGGGGTGGACGGGCCGGGTAGATAGTATGTGCATTC
DNA 2: CCGTCCACCCCC
modifications: 3' NH2 on strand 1, immobilized on aldehyde slide
On to B5, for which the binding result in the data set with alpha-chymotrypsin [4] is “no binding”.

B6: V7t1-FITC (structured_DNA)
DNA: TGTGGGGGTGGACGGGCCGGGTAGATAGTATGTGCATTC
With B6, the Kd with VEGF-A165 [1] (label: 5' FITC, G-quadruplex with three G-quartets) worked out at 155 ± 55 nM.
